Tests used:
[1] = test system: Type I-C Cascade-Cas3 D370A (helicase mutant) Cas3 D370A (Pseudomonas aeruginosa); experiment: cell_activity; conditions: smaller deletions; PAM not stated
[2] = test system: Type I-C Cascade with Cas3-Cas8 tether (Pseudomonas aeruginosa); experiment: cell_activity; conditions: smaller deletions than untethered; PAM not stated

crRNA targeting 200 bp upstream of phzM ; site 200 bp upstream of phzM
activity (% survivors edited) [1]: 25 | activity (% survivors with deletion (17/20)) [2]: 85

From patent US20220356470
